Laboratory results published in the supplement of paper PMC10065799, “High-throughput profiling of sequence recognition by tyrosine kinases and SH2 domains using bacterial peptide display” (eLife, 2023).

Each sequence was assayed on c-Src (assay: phosphorylation enrichment, bacterial display (enrichment ratio); higher = better substrate or ligand; peptides without Tyr show the background).
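Note: 11-residue human phosphosite peptides and single-mutation variants displayed on the E. coli surface, counted by deep sequencing, each peptide's frequency after selection divided by its frequency in the unselected input library; frequency after pTyr selection over input frequency; kinase dosed for 20-30% of maximal phosphorylation in three min.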

Sequence	phosphorylation enrichment
MRALIYNSSTA [PLEKHA7_Y243]	0.724
ILTLKYPIELG [ACTA1_Y71_H75L]	0.352
QDEHGYIFRCF [HSPB1_Y133_S135F]	0.661
LSGFGYRLSDQ [PDCD6_Y124]	0.558
LEDDVYRKTCT [XPA_Y257_M256V]	1.2
RGNMFYENSFA [EGFR_Y113_YF]	0.922
CNPLRYPTIMI [OR6K6_Y160]	0.464
SLLTDYSPQLQ [OTC_Y345]	0.372
LIQRNYKLAAQ [ALPK2_Y1975]	0.49
ILTLKYPIEHG [ACTA1_Y71]	0.376
ESSKAYERALS [TTC37_Y1074]	0.409
CSSPTYRDCLQ [LARGE2_Y682_R677C]	0.484
YSMGCYEIYLG [HMGCL_Y198_S201Y]	5.79
QGIYGYHHYMQ [UFSP2_Y287]	8.3
KSPDSYQKILL [ATM_Y1415]	0.429
PRLMLYNPTTF [EGFR_Y270_P266R_YF]	0.729
RRVPVYGGRGA [QDPR_Y16_L14P]	1.15
TEQDPYNNIVR [MMUT_Y364]	0.581
SHTPSYCDESL [RITA1_Y109]	0.403
HYPDVYAREQL [ALX3_Y181]	0.709
VCHELYNAIRD [PBRM1_Y54_T56A]	1.33
KSSDVYVSFDC [SORL1_Y136_Y141C_YF]	3.34
KILPEYLSNWT [AIFM1_Y347]	0.503
TVQVAYFTMMM [SPATA17_Y83_YF]	0.599
IGNGFYFRVFS [MYBPC3_Y1136_YF]	0.361
EQQNMYRLKVL [ABCC6_Y372]	0.452
QRIYQYIRSRF [DYRK1B_Y273_Q275R]	1.16
YETSHYPASPD [CTNND2_Y1217]	0.489
APEVIYATPGA [ABLtide_2014]	5.95

What follows are sequences tested against EPHB1 (UniProt P54762) in the same assay as above.
EPHB1, sequence (P54762 whole entry, looked up): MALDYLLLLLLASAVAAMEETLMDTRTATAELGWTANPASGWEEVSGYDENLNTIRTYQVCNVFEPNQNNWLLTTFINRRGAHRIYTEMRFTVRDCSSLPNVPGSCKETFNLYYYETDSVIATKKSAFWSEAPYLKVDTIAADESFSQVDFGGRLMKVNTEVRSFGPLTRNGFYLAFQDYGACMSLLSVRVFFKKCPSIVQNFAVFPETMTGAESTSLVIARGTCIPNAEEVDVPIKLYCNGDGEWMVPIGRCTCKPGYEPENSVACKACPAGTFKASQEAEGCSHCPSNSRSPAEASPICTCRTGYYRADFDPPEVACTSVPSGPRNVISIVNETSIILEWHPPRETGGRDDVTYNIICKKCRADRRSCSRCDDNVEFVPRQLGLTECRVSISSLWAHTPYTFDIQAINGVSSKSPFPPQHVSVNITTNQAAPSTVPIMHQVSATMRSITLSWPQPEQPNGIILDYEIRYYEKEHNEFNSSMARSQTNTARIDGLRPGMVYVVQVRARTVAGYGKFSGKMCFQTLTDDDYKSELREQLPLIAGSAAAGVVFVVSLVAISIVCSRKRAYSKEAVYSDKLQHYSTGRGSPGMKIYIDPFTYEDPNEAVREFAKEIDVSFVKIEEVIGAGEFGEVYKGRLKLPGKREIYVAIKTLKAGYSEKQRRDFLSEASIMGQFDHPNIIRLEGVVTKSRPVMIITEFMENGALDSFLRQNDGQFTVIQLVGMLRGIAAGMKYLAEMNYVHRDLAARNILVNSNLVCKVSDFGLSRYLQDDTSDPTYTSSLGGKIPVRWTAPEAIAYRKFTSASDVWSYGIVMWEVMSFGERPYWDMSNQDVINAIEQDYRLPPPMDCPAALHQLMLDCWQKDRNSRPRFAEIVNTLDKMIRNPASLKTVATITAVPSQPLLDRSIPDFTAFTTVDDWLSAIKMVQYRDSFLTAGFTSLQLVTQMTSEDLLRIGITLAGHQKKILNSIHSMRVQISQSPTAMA

Sequence	phosphorylation enrichment
MRALIYNSSTA [PLEKHA7_Y243]	0.507
ILTLKYPIELG [ACTA1_Y71_H75L]	0.578
QDEHGYIFRCF [HSPB1_Y133_S135F]	1.27
LSGFGYRLSDQ [PDCD6_Y124]	0.64
LEDDVYRKTCT [XPA_Y257_M256V]	1.14
RGNMFYENSFA [EGFR_Y113_YF]	0.483
CNPLRYPTIMI [OR6K6_Y160]	0.49
SLLTDYSPQLQ [OTC_Y345]	0.459
LIQRNYKLAAQ [ALPK2_Y1975]	1.13
ILTLKYPIEHG [ACTA1_Y71]	0.476
ESSKAYERALS [TTC37_Y1074]	0.413
CSSPTYRDCLQ [LARGE2_Y682_R677C]	0.5
YSMGCYEIYLG [HMGCL_Y198_S201Y]	4.78
QGIYGYHHYMQ [UFSP2_Y287]	3.8
KSPDSYQKILL [ATM_Y1415]	0.397
PRLMLYNPTTF [EGFR_Y270_P266R_YF]	0.763
RRVPVYGGRGA [QDPR_Y16_L14P]	0.573
TEQDPYNNIVR [MMUT_Y364]	0.5
SHTPSYCDESL [RITA1_Y109]	0.462
HYPDVYAREQL [ALX3_Y181]	0.518
VCHELYNAIRD [PBRM1_Y54_T56A]	0.543
KSSDVYVSFDC [SORL1_Y136_Y141C_YF]	1.41
KILPEYLSNWT [AIFM1_Y347]	0.428
TVQVAYFTMMM [SPATA17_Y83_YF]	0.662
IGNGFYFRVFS [MYBPC3_Y1136_YF]	0.64
EQQNMYRLKVL [ABCC6_Y372]	0.56
QRIYQYIRSRF [DYRK1B_Y273_Q275R]	0.9
YETSHYPASPD [CTNND2_Y1217]	0.382
APEVIYATPGA [ABLtide_2014]	3.19

What follows are sequences tested against Jak2 (UniProt O60674) in the same assay as above.
Jak2, sequence (O60674 whole entry, looked up): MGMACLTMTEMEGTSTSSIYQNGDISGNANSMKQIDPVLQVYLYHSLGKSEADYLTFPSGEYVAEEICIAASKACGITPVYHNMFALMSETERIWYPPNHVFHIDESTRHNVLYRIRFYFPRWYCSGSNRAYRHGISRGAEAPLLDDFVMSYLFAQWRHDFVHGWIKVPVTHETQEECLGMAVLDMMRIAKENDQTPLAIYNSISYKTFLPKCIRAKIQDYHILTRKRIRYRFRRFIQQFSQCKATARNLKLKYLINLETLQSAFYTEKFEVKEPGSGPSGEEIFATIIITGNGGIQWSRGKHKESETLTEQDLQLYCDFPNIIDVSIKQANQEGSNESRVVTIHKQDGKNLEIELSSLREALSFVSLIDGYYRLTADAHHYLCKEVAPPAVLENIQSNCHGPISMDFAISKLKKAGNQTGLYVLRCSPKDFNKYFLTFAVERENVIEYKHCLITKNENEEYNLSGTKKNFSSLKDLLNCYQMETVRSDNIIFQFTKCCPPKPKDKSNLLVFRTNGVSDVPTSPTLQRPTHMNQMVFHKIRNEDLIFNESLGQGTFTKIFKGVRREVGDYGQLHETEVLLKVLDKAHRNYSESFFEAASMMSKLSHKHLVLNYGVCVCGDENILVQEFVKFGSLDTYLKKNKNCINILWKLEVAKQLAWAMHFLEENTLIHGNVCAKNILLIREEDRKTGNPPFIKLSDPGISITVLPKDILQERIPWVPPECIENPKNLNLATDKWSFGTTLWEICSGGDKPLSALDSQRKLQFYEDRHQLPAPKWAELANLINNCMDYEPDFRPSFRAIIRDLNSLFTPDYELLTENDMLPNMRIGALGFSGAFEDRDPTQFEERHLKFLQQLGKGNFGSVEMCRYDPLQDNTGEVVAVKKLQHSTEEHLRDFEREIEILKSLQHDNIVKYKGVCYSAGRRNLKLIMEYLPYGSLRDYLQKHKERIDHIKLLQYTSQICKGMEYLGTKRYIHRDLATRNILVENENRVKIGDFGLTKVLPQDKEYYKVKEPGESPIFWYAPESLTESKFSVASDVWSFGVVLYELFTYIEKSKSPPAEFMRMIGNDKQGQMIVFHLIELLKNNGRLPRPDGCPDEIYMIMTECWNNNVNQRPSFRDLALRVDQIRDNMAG

Sequence	phosphorylation enrichment
MRALIYNSSTA [PLEKHA7_Y243]	0.8
ILTLKYPIELG [ACTA1_Y71_H75L]	0.74
QDEHGYIFRCF [HSPB1_Y133_S135F]	1.6
LSGFGYRLSDQ [PDCD6_Y124]	1.09
LEDDVYRKTCT [XPA_Y257_M256V]	2.14
RGNMFYENSFA [EGFR_Y113_YF]	1.01
CNPLRYPTIMI [OR6K6_Y160]	0.871
SLLTDYSPQLQ [OTC_Y345]	0.788
LIQRNYKLAAQ [ALPK2_Y1975]	0.44
ILTLKYPIEHG [ACTA1_Y71]	0.584
ESSKAYERALS [TTC37_Y1074]	0.594
CSSPTYRDCLQ [LARGE2_Y682_R677C]	0.846
YSMGCYEIYLG [HMGCL_Y198_S201Y]	1.41
QGIYGYHHYMQ [UFSP2_Y287]	1.36
KSPDSYQKILL [ATM_Y1415]	0.712
PRLMLYNPTTF [EGFR_Y270_P266R_YF]	1.38
RRVPVYGGRGA [QDPR_Y16_L14P]	1.36
TEQDPYNNIVR [MMUT_Y364]	0.881
SHTPSYCDESL [RITA1_Y109]	0.62
HYPDVYAREQL [ALX3_Y181]	0.892
VCHELYNAIRD [PBRM1_Y54_T56A]	0.79
KSSDVYVSFDC [SORL1_Y136_Y141C_YF]	0.889
KILPEYLSNWT [AIFM1_Y347]	0.983
TVQVAYFTMMM [SPATA17_Y83_YF]	1.15
IGNGFYFRVFS [MYBPC3_Y1136_YF]	1.43
EQQNMYRLKVL [ABCC6_Y372]	0.561
QRIYQYIRSRF [DYRK1B_Y273_Q275R]	0.817
YETSHYPASPD [CTNND2_Y1217]	0.7
APEVIYATPGA [ABLtide_2014]	0.839

What follows are sequences tested on AncSZ in the same assay as above.

Sequence	phosphorylation enrichment
MRALIYNSSTA [PLEKHA7_Y243]	0.834
ILTLKYPIELG [ACTA1_Y71_H75L]	0.886
QDEHGYIFRCF [HSPB1_Y133_S135F]	1.75
LSGFGYRLSDQ [PDCD6_Y124]	1.02
LEDDVYRKTCT [XPA_Y257_M256V]	1.89
RGNMFYENSFA [EGFR_Y113_YF]	1.21
CNPLRYPTIMI [OR6K6_Y160]	0.946
SLLTDYSPQLQ [OTC_Y345]	0.776
LIQRNYKLAAQ [ALPK2_Y1975]	1.19
ILTLKYPIEHG [ACTA1_Y71]	0.716
ESSKAYERALS [TTC37_Y1074]	0.77
CSSPTYRDCLQ [LARGE2_Y682_R677C]	0.812
YSMGCYEIYLG [HMGCL_Y198_S201Y]	4.43
QGIYGYHHYMQ [UFSP2_Y287]	1.6
KSPDSYQKILL [ATM_Y1415]	0.55
PRLMLYNPTTF [EGFR_Y270_P266R_YF]	1.16
RRVPVYGGRGA [QDPR_Y16_L14P]	0.969
TEQDPYNNIVR [MMUT_Y364]	1.01
SHTPSYCDESL [RITA1_Y109]	0.806
HYPDVYAREQL [ALX3_Y181]	0.481
VCHELYNAIRD [PBRM1_Y54_T56A]	0.939
KSSDVYVSFDC [SORL1_Y136_Y141C_YF]	1.44
KILPEYLSNWT [AIFM1_Y347]	0.995
TVQVAYFTMMM [SPATA17_Y83_YF]	1.04
IGNGFYFRVFS [MYBPC3_Y1136_YF]	1.05
EQQNMYRLKVL [ABCC6_Y372]	0.861
QRIYQYIRSRF [DYRK1B_Y273_Q275R]	0.887
YETSHYPASPD [CTNND2_Y1217]	0.858
APEVIYATPGA [ABLtide_2014]	2.58
